Reference: patent US20200055952A1 (B CELL DESIGN, published 2020)
Values belong to the molecule of their own block, whether it stands above or below them.

Legend:
[1] = biological target: carcinoembryonic antigen (CEA) on WiDr human colorectal cancer cells (human) (UniProt P06731); experiment: cell-based or functional assay
CEACAM-6 (NCA or CD66c) = biological target: T1, CEACAM-6 (NCA or CD66c) (UniProt P40199 35-320, limits assumed); experiment: immunofluorescence on tissues (liver and stomach) and flow cytometry on leukocytes, data not shown
T1 construct: whole, on cells
T1 sequence (looked up): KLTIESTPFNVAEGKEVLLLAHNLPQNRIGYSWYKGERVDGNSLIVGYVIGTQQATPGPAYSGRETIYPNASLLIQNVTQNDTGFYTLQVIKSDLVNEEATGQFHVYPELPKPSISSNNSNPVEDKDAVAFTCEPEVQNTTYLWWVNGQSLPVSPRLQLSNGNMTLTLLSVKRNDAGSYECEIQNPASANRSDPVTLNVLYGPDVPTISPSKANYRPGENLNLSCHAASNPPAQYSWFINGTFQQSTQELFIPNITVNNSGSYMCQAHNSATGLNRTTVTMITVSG

doubly selected cells (Effector Cell (CD89+): WiDr target cells (CEA+)) by flow cytometry, in vivo in SCID-CD89 mice [1]: 10.2%
Molecule: irrelevant polymeric IgA anti-peanut (antibody)

binding result (CEACAM-6 (NCA or CD66c)): no binding
B1: anti-CEA IgA monoclonal antibody clone 15B3 (human/mouse chimeric IgA1, hybridoma culture supernatant) (antibody, V domains shown)
VH: QIQLVQSGPELKKPGETVKISCKASGYTFTNYGMNWVNQAPGKGLKWMGWINTNTGEPTYAEEFKGRFAFSLETSASTAYLQINNLKNEDTATYFCARLWYLYFDVWGAGTTVTVSS
VL: DIQMTQSPASQSASLGESVTITCLASQTIGTRLAWYQQKPGKSPQLLIYAATRLADGVPSRFSGSGSGTKFSFKISSLQAEDFVSYYCQQLYSTPYTFGGGTKLEIK
notes: From HAMIGA mice: human IgA1 heavy chain constant regions, mouse light chain constant regions, mouse variable regions; The hybridoma supernatant holds monomeric (no J chain) and polymeric (murine J chain) forms; also called mAb 15B3; IgA anti-CEA clone #15B3
